Test results: patent publication US20230391853A1 (FAPON BIOTECH, published 2023)

Biological target: T1, 2019-nCoV N protein antigen (2019-nCoV (novel coronavirus), UniProt P0DTC9 1-419)
T1 construct: Coated on plates in ELISA; in solution in the AMC sensor assay; also called N protein of the novel coronavirus; nucleocapsid protein (N protein)
Assay: AMC sensor kinetics, antibody captured
Experimental: Operational process: equilibrium was performed in buffer 1 (PBST) for 60 s, the antibody was cured in an antibody solution for 300 s, incubation was performed in buffer 2 (PBST) for 180 s, binding was performed in an antigen solution for 420 s, dissociation was performed in buffer 2 for 1200 s, sensor regeneration was performed with a 10 mM pH 1.69 GLY solution and buffer 3, and data were outputted. KD represents an equilibrium dissociation constant, that was, the affinity; kon represents the binding rate; and kdis represents the dissociation rate.

B1: WT (antibody, mouse IgG1, kappa, V domains shown)
VH: DVQLVESGGGLVQPGGSRKLSCAASGVTFSTFAMHWVRQAPEKGLEWVAYLNSASNLIYYADTLKGRFTISRDNPKNTLFLQMTSLRSEDTAMYYCTRHAMDYWGQGTSVTVSS
VL: DIVLTQSPASLAVSLGQRATISCKASQSIDYDGDSFMNWFQQKPGQPPKLLIYDASNVESGIPARFSGSGSGTDFTLNIHPVEEEDAATYYCQHSNEDPYTFGGGTKLEIKR
notes: also called VT; antibody in Embodiment 1
In the case of B1, the Kd is reported as 8.03 nM, the koff is reported as 0.00141 s⁻¹ and the kon is reported as 175000 M⁻¹ s⁻¹.
